Measured values reported in the supplement of paper PMC10126150.
± gives the standard deviation of the averaged measurements.

Tested on: ATP
Test: switch fluorescence ratio, 500 uM ATP over buffer (Cy3 cluster intensity, sum of 5 cycles each) (fold (ratio)); higher = stronger signal-on switching upon ATP binding; sequences stand for … in TCGTCGGCAGCGTCAGATGTGTATAAGAGACAGTTTTTTTTTTTTTTTTTTTTTTTTT…TC
Details: aptamer strand: ATP DNA aptamer (quencher-CACCTGGGGGAGTATTGCGGAGGAAGG + anchor), 100 nM annealed; ATP concentration: 500 uM
Summary of the method: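 The fluorescence ratio divides summed target-cycle Cy3 intensity by summed buffer-cycle Cy3 intensity for each cluster and is averaged per switch-domain sequence. Cy3-labelled switching-strand clusters on a modified Illumina MiSeq flow-cell were annealed to 100 nM quencher-labelled ATP aptamer, then imaged in selection buffer and again after 15 min with 500 uM ATP at 22 °C. Five such cycles were run, with NaOH stripping and re-annealing between them, and clusters outside 100-1000 RFU were excluded.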
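Also: ATP exposure 15 min at 22 °C before imaging.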

Sequence | switch fluorescence ratio
CCCATTTTTT | 1 ± 0.049
GCTATCGTGC | 0.975 ± 0.013
TCAAGACCTT | 1.19 ± 0.014
TTTTGTTTCC | 1.01 ± 0.062
GGAATATTGG | 1.02 ± 0.019
ATATCAGGGC | 0.961 ± 0.034
TAAGGAAAGT | 0.991 ± 0.027
AGTATAGGGT | 0.972 ± 0.029
AAATTTAGGA | 0.987 ± 0.021
CGAATCGGTG | 1.01 ± 0.019
TAGGAGGGGT | 0.999 ± 0.022
GGTTATCGGC | 1.01 ± 0.017
CCGCGTTATG | 1.67 ± 0.078
GGCTTCGGGG | 0.98028 ± 0.00081
TGATGGGGAT | 1.03 ± 0.017
AACAGGGGTG | 1.09 ± 0.015
CATAGGAACG | 0.955 ± 0.045
CGGACGGTTG | 1.01 ± 0.042
AAGACGTAGG | 1.06 ± 0.034
AAGAGGGCAG | 0.992 ± 0.0081
ATCGTTAGAA | 1.006 ± 0.0025
AGATTTGGCA | 0.988 ± 0.03
TGTTTTAGTG | 0.994 ± 0.021
CCTGGATTCA | 0.9888 ± 0.002
GATCCTGAGG | 0.968 ± 0.077

Sequence | switch fluorescence ratio
CGGGTGGGAG | 0.991 ± 0.038
AATTTTAGTC | 0.994 ± 0.04
AAAGCGTATA | 0.987 ± 0.052
TTTGGGCACG | 1.05 ± 0.017
TTTGTGTATG | 0.9701 ± 0.0032
TACGTTACTC | 1.56 ± 0.018
AATCGGGCTG | 0.962 ± 0.042
ATCAAAACGT | 1.04 ± 0.043
GGGTACTGAT | 1.01 ± 0.024
TGGGCGATAG | 1.02 ± 0.027
ATTTGGGTAG | 1.01 ± 0.062
GGTGGGGGGT | 0.989 ± 0.029
TCGCGAGGGG | 0.997 ± 0.025
CTTCATGGGT | 0.962 ± 0.013
TGGTCAGGGT | 0.9735 ± 0.0097
TAGGATACTT | 0.9769 ± 0.0016
GGGACGGGGA | 0.978 ± 0.026
ATCTCTTTTA | 0.954 ± 0.0099
GAGGGTTCCG | 1.01 ± 0.026
GAGGGCGTTT | 0.98 ± 0.027
CATTATATCG | 1 ± 0.023
TGGTATTTTG | 0.977 ± 0.024
GGCATTTGGA | 0.98 ± 0.035
TGATGGGCAG | 1.01 ± 0.047
AATAAATGTA | 1.04 ± 0.048

Sequence | switch fluorescence ratio
CATGGGAAGA | 0.9755 ± 0.004
TTGGTTACTG | 1.03 ± 0.07
CGGTATTTGC | 0.979 ± 0.0099
TTTATTGTGG | 0.9934 ± 0.0071
TACAAAAAGG | 0.981 ± 0.023
TTTATCTTCG | 1.04 ± 0.017
CCGGGGGATC | 1.1 ± 0.017
AGCGTCTGTG | 0.962 ± 0.036
GTTTGTACAC | 0.986 ± 0.054
CTTTATAGTT | 1.02 ± 0.034
TTGATAGTTG | 1.01 ± 0.049
TCATAGGTAC | 1.04 ± 0.031
TGGTTGAGGC | 1.01 ± 0.021
GAATGGCGG | 0.998 ± 0.041
TTTATCACCT | 1.14 ± 0.021
GTTTCGGTTT | 1.1 ± 0.096
TAGATTGTTT | 0.998 ± 0.021
GCAACATTTT | 1.01 ± 0.043
CGGGTTAGTG | 0.992 ± 0.023
TTGGGCAGTG | 1.02 ± 0.045
AACTTGTTTT | 1.02 ± 0.032
TAGGAGTTTG | 0.9894 ± 0.0046
AAGTGGCCGG | 0.961 ± 0.074
CCAAGCGCTG | 1.06 ± 0.03
AACGATTTTT | 1.007 ± 0.0084

Sequence | switch fluorescence ratio
ACAGTTGGGT | 1.002 ± 0.0047
TCTTTTAGTA | 0.991 ± 0.035
TGAGTCGCGT | 1.01 ± 0.013
GACTTTGTGC | 0.9772 ± 0.0022
TTCTGGGGCA | 1.05 ± 0.055
CAAATATGAG | 0.972 ± 0.033
TTGCCAATCC | 1.04 ± 0.04
TCAGCAAATT | 1.09 ± 0.041
TGATAGATGC | 1.03 ± 0.025
AAGATCATTG | 0.98 ± 0.041
ATGTAACGGG | 1.03 ± 0.021
CAAACAGTCG | 1.01 ± 0.042
TCAAGGATGT | 1 ± 0.032
GTACTTCTGT | 0.96 ± 0.014
CCATGGCGGG | 0.97 ± 0.028
AACCCAAGGG | 1.09 ± 0.055
CTTCAGGAGC | 1.69 ± 0.11
GTTCCGGCGT | 1.21 ± 0.25
GACTCAATGG | 1.14 ± 0.03
ATCCATATT | 1.03 ± 0.029
GCGGGCCTTG | 0.984 ± 0.068
GTGGGCCAGG | 1.06 ± 0.094
AAAAATTTTG | 1.04 ± 0.056
CGCGAGGGGC | 1.07 ± 0.012
CGTTTGATGC | 1.018 ± 0.0033
